According to CN114106160A (ANYUAN MEDICINE SCIENCE AND TECH SHANGHAI LIMITED COMPANY, dated 2022):
Where two headings read alike, the source gives them in different places.

What was measured:
[1] = target: T1, SARS-CoV-2 S1蛋白 (ACRO Biosystems) (SARS-CoV-2, UniProt P0DTC2 16-685)
[2] = target: T1, SARS-CoV-2 S1蛋白 (ACRO Biosystems); test: BLI, biotinylated SARS-CoV-2 S1 on SA sensor, antibody as analyte, 1:1 model
[3] = target: T2, 刺突S-鼠Fc融合蛋白(S-mFc) (SARS-CoV-2; mouse, UniProt P0DTC2 14-1213); test: flow cytometry, antibody blocks binding of S-mFc to 293T-ACE2 cells
T2 construct: domain: S蛋白全长区段

[4] = target: SARS-CoV-2 S1蛋白 (ACRO Biosystems) (SARS-CoV-2, UniProt P0DTC2 16-685); test: BLI, biotinylated SARS-CoV-2 S1 on SA sensor, antibody as analyte, 1:1 model
[5] = target: 刺突S-鼠Fc融合蛋白(S-mFc) (SARS-CoV-2; mouse, UniProt P0DTC2 14-1213); test: flow cytometry, antibody blocks binding of S-mFc to 293T-ACE2 cells

Binder	EC50 [1]	Kd [2]	koff [2]	kon [2]	IC50 [3]	Kd [4]	koff [4]	kon [4]	IC50 [5]
人源化抗体hS1B-48-2 (antibody, V domains shown) VH: EVQLVQSGAEVKKPGASVKVSCKASGYTFTNYVMHWVRQAPGKGLEWIGYFNPYNDDAEYNEKFKGKATLTSDKSTSTAYMKLSSLRSEDTAVYYCASLRQETDYWGQGTTLTVSS VL: DIVLTQSPSSLAVSLGERATINCRASESVDNYGFSLMNWFQQKPGKPPKLLIYEASNQGSGVPARFSGSGSGTDFTLKISRLQAEDVAVYFCHQSKEVPWTFGGGTKLEIKR	0.0197 µg/mL	0.00113 nM	9.81e-07 s⁻¹	867000 M⁻¹ s⁻¹	0.00582 µg/mL				
鼠源抗体S1B-48-2 (antibody, V domains shown) VH: EVQLQQSGPELEKPGASVKMSCKASGYTFTNYVMHWVKQKPGQGLEWIGYFNPYNDDAEYNEKFKGKATLTSDKSSSTAYMVLSSLTSEDSAVYYCACLRQETDYWGQGTTLTVSS VL: not shown						0.0156 nM	4.27e-06 s⁻¹	273000 M⁻¹ s⁻¹	0.0108 µg/mL
鼠源抗体S1B-64-2 (antibody, V domains shown) VH: EVQLQQSGPELEKPGASVKMSCKASGYTFTNYVMHWVKQKPGQGLEWIGYFNPYNDGTKYNEKFKGKATLTSDKSSSTAYMELSSLTSEDSAVYYCACLRQRADYWGQGTTLTVSS VL: not shown						0.091 nM	4.43e-05 s⁻¹	487000 M⁻¹ s⁻¹	
